In patent publication US20250115680A1 (PROFOUNDBIO US, published 2025):

How the values were obtained:
[1] = target: T1, cynomolgus PTK-7 recombinant protein (cynomolgus monkey, UniProt A0A2K5VNI5 39-712); assay: ELISA, plate-coated cynomolgus PTK7 protein, anti-human Fc-HRP detection
T1 construct: also called cynomolgus monkey PTK7 protein; cyano PTK7
T1 sequence: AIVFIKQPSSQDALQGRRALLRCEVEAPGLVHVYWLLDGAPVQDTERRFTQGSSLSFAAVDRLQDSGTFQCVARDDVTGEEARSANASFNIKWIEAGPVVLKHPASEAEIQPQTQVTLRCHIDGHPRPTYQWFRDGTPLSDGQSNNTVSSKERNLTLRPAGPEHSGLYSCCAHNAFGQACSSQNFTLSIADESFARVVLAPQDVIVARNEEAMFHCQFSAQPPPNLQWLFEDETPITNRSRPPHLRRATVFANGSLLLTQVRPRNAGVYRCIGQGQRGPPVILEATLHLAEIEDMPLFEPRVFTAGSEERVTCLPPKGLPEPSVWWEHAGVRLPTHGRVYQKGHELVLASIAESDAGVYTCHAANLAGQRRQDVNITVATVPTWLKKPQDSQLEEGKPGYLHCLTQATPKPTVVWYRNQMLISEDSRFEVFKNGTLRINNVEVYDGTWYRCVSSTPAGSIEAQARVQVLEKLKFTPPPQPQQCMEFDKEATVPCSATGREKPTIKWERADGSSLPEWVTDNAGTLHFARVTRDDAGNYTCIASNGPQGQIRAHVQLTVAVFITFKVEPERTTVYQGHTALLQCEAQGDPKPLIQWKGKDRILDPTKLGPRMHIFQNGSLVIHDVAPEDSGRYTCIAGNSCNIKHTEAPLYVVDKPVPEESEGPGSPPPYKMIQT
Description: Binding specificity property was tested by ELISA according to a standard protocol. Specifically, 96-well micro-plates were coated with 2 μg/mL human, cynomolgus, mouse, and rat PTK-7 recombinant protein in PBS 100 μL per well, incubated overnight at 4° C. Plates were washed twice by TBS+0.5% Tween20. 200 μL of blocking buffer (2% BSA in PBS) was added to each well and incubated at 37° C. for 2 hours. Plates were washed using the buffer mentioned above. Serially diluted antibodies were added to the ELISA plate with 100 μL per well and incubated for 1 hour at room temperature. Then plates were washed for 3 times. After washing, HRP conjugated anti-human Fc antibody solution (abcam, ab98624, diluted with blocking buffer) was added to the plate with 100 μl per well. The plates were incubated at room temperature for 1 hour and then washed for 3 times. Then TMB solution was added to plates with 100 μl per well, placed at room temperature for 5-15 mins, then the stop solution (2M H₂SO₄) was added with 50 μl per well. Finally, the result was measured by absorbance at A₄₅₀ and A₆₃₀.

[2] = target: T2, human PTK7 on the surface of PTK7-expressing tumor cell lines (human, UniProt Q13308 31-1070); assay: flow cytometry on MDA-MB-468 cells, PE anti-human Fc detection, MFI(PE)
T2 construct: whole, on cells
T2 sequence (looked up): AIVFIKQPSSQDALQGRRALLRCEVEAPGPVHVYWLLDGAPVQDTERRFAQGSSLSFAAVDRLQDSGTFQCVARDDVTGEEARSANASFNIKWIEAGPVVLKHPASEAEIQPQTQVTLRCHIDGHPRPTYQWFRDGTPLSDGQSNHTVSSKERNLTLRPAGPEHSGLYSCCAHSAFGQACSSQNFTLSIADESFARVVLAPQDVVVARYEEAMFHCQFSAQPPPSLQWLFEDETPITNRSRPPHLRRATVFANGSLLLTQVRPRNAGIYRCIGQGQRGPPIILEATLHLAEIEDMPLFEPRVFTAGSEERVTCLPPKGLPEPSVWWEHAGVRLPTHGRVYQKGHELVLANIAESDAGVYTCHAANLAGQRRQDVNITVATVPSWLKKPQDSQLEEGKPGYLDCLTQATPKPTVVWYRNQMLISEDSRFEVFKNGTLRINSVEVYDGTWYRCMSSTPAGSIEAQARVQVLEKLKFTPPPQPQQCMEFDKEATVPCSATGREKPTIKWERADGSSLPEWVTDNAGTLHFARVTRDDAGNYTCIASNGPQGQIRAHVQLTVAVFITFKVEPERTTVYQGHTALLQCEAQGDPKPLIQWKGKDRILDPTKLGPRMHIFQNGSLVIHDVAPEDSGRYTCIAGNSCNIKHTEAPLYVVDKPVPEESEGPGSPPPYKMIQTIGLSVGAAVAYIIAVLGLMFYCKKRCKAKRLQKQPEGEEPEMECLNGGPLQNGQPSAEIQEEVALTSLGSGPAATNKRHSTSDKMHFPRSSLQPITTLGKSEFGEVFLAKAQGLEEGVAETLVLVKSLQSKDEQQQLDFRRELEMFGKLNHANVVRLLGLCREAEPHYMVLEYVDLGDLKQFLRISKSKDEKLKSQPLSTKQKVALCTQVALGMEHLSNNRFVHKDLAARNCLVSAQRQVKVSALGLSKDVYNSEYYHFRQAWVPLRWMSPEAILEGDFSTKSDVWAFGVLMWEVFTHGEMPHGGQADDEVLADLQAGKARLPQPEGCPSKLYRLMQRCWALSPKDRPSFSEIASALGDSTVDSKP

[3] = target: T2, human PTK7 on the surface of …; assay: flow cytometry on MDA-MB-453 cells, PE anti-human Fc detection, MFI(PE)

B1: humanized antibody 2C5 (antibody, V domains shown)
VH: QVQLVQSGAEVKKPGASVKVSCKASGYTFTDYYINWVRQAPGQGLEWMGDINPYSGGPVYNQKFMARVTMTVDKSINTAYMELSRLRSDDTAVYYCARGDYYGSNYNYWGQGTLVTVSS
VL: EIVLTQSPATLSVSPGERATLSCRASQNIGTSIHWYQQKPGQAPRLLIKFASESISGIPARFSGSGSGTEFTLTISSLQSEDIAVYYCQQSNNWPYTFGQGTKLEIK
notes: Only variable regions are tied to 2C5; It was detected with anti-human Fc, so it has a human Fc
EC50 [1]: 1.67 nM
EC50 [2]: 0.543 nM
EC50 [3]: 0.488 nM

B2: humanized antibody 2C8 (antibody, V domains shown)
VH: QIQLVQSGAEVKKPGASVKVSCKASGYTFTTYGMSWVRQAPGQGLEWMGWINTHSGVPTYVDEFKGRVTMTLDTSTSTAYMELSSLRSEDTAVYYCARSPFDYGSRGAWFVYWGQGTTVTVSS
VL: DVVMTQSPDSLAVSLGERATINCRSSQSIVHNSGDTYLEWYQQKPGQPPKLLIYKVSNRFPGVPDRFSGSGSGTDFTLTISSLQAEDLAVYYCFQGSHVPWTFGGGTKVEIK
notes: Only variable regions are tied to 2C8 by name; It was detected with anti-human Fc
EC50 [1]: 2.61 nM
EC50 [2]: 0.481 nM
EC50 [3]: 0.339 nM

B3: humanized antibody 13C4 (antibody, V domains shown)
VH: QVQLVESGGGLVKPGGSLRLSCAASGFAFSTYDMFWIRQAPGKGLEWVSTISSGGGYTYYPGSVKGRFTISRDNAKNSLYLQMNSLRAEDTAVYYCVRPLLRDSYFYFDVWGQGTMVTVSS
VL: EIVMTQSPATLSVSPGERATLSCRASSSVSSSYLHWYQQKPGQAPRLLIFRTSNLASGIPARFSGSGSGTEYTLTISSLQSEDAAVYYCQQYSGYPLTFGQGTKLEIK
notes: Only variable regions are tied to 13C4; It was detected with anti-human Fc
EC50 [1]: 1.14 nM
EC50 [2]: 0.558 nM
EC50 [3]: 0.623 nM
